Laboratory results taken from US12295987B2, “Method of using a GIP/GLP1 co-agonist for diabetes” (Eli Lilly and Company, priority 2018, dated 2025).
Numbered stars: 1 amine (or outer) side, 2 acyl side, 3 side chain; on linkers, the order of the positions; unused ones are H or OH. Square brackets hold non-standard residues; d marks the D form. Side chains are listed from the residue outwards. Ends that are not written are not given here. * marks the point of attachment. C20 diacid = O=C(O)CCCCCCCCCCCCCCCCCCC(=O)*; γGlu = O=C(O)[C@H](CCC(=O)[*:2])N[*:1]; AEEA = NCCOCCOCC(=O)O; Aib = CC(C)(N)C(=O)O

Target: T1, human gastric inhibitory peptide receptor (hGIPR) (Homo sapiens, UniProt P48546)
T1 construct: expressed in transfected cells; host or cells: HEK293
T1 sequence (P48546 22-466): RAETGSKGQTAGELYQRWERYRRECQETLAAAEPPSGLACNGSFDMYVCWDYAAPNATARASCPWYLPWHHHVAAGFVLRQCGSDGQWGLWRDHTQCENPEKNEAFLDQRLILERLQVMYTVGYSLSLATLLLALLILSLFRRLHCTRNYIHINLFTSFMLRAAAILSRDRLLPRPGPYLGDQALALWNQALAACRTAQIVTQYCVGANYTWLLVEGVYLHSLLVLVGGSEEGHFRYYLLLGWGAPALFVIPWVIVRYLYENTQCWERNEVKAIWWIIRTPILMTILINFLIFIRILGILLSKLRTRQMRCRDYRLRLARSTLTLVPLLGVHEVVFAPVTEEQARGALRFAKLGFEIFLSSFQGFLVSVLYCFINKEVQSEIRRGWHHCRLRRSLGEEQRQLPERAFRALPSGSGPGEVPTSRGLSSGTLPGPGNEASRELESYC
Test: cAMP pharmacological functional assay in presence of 0.1% casein, hGIPR
Assay type: cell-based
Details: ratio of hGIPR to hGLP1R cAMP EC50 ratios
Procedure: Each receptor over-expressing cell line (20 μl) is treated with the test peptide in DMEM (Gibco Cat #31053) supplemented with 0.1% Casein (Sigma Cat #C4765), 250 μM IBMX, 1× GlutaMAX™ (Gibco Cat #35050), and 20 mM HEPES (HyClone Cat #SH30237.01) in a 20 μl assay volume. […] EC50 is the concentration of compound causing half-maximal simulation in a dose response curve. A relative EC50 value is derived by non-linear regression analysis using the percent maximal response vs. the concentration of peptide added, fitted to a four-parameter logistic equation.
Intracellular cAMP levels are determined by extrapolation using a standard curve. Dose response curves of compounds are plotted as the percentage of stimulation normalized to minimum (buffer only) and maximum (maximum concentration of each control ligand) values and analyzed using a four parameter non-linear regression fit with a variable slope (Genedata Screener 13). EC50 is the concentration of compound causing half-maximal simulation in a dose response curve.
EC50 is the concentration of compound causing half-maximal simulation in a dose response curve.

Question: Which “[hGIPR/hGLP1R] EC50 Ratio” value does the source give for “Y-Aib-EGT-αMeF(2F)-TSDHSI-αMeL-LD-Orn-K((2-[2-(2-Amino-ethoxy)-ethoxy]-acetyl)2-(γGlu)-CO—(CH2)18—CO2H)AQ-Aib-TFI-(D-Glu)-YLIEGGPSSGAPPPS-NH2 (YXEGTXTSDHSIXLDXKAQXTFIXYLIEGGPSSGAPPPS; Aib, αMeF(2F), αMeL, Orn, D-Glu; lipidated K; amide; (2)..(2) Xaa at position 2 is Aib; (6)..(6) Xaa at position 6 is alpha-methyl-Phe(2F); (13)..(13) Xaa at position 13 is alpha-methyl-Leu; (16)..(16) Xaa at position 16 is Orn; MOD_RES (17)..(17) Lys at position 17 is chemically modified by conjugation of the epsilon-amino group of the Lys side chain with (2-[2-(2-amino-ethoxy)-ethoxy]-acetyl)2-(gamma-Glu)-CO-(CH2)18- CO2H; (20)..(20) Xaa at positi) [Peptide 171]” here?
Answer: The value was 7.73.

Question: Which “[hGIPR/hGLP1R] EC50 Ratio” value does the source give for “Y-Aib-EGT-αMeF-TSDYSI-αMeL-LDEK((2-[2-(2-Amino-ethoxy)-ethoxy]-acetyl)2-(γGlu)-CO—(CH2)16—CO2H)AQ-Aib-EFI-(D-Glu)-YLIEGGPSSGAPPPS-NH2 (YXEGTXTSDYSIXLDEKAQXEFIXYLIEGGPSSGAPPPS; Aib, αMeF, αMeL, D-Glu; lipidated K; amide; (2)..(2) Xaa at position 2 is Aib; (6)..(6) Xaa at position 6 is alpha-methyl-Phe; (13)..(13) Xaa at position 13 is alpha-methyl-Leu; MOD_RES (17)..(17) Lys at position 17 is chemically modified by conjugation of the epsilon-amino group of the Lys side chain with (2-[2-(2-amino-ethoxy)-ethoxy]-acetyl)2-(gamma-Glu)-CO-(CH2)16- CO2H; (20)..(20) Xaa at position 20 is Aib; (24)..(24) Xaa at position 2) [Peptide 213]” here?
Answer: Its value is 5.58.

Question: How did the “[hGIPR/hGLP1R] EC50 Ratio” value turn out when “Y-Aib-EGT-αMeF(2F)-TSDYSI-αMeL-LDEK((2-[2-(2-Amino-ethoxy)-ethoxy]-acetyl)2-(γGlu)-CO—(CH2)18—CO2H)AQ-Aib-EFIHYLIEGGPSSGAPPPS-NH2 (YXEGTXTSDYSIXLDEKAQXEFIHYLIEGGPSSGAPPPS; Aib, αMeF(2F), αMeL; acylated lysine C20 diacid; amide; (2)..(2) Xaa at position 2 is Aib; (6)..(6) Xaa at position 6 is alpha-methyl-Phe(2F); (13)..(13) Xaa at position 13 is alpha-methyl-Leu; MOD_RES (17)..(17) Lys at position 17 is chemically modified by conjugation of the epsilon-amino group of the Lys side chain with (2-[2-(2-amino-ethoxy)-ethoxy]-acetyl)2-(gamma-Glu)-CO-(CH2)18- CO2H; (20)..(20) Xaa at position 20 is Aib; MOD_RES (39)..(39) Ser a) [Peptide 153]” was run?
Answer: Its value is 3.39.

Question: “Y-Aib-EGT-αMeF(2F)-TSDLSI-αMeL-LD-Orn-K((2-[2-(2-Amino-ethoxy)-ethoxy]-acetyl)2-(γGlu)-CO—(CH2)16—CO2H)AQ-Aib-AFI-(D-Glu)-αMeY-LIEGGPSSGAPPPS-NH2 (YXEGTXTSDLSIXLDXKAQXAFIXXLIEGGPSSGAPPPS; Aib, Orn, αMe residues, lipidated Lys, D-Glu, amide; (2)..(2) Xaa at position 2 is Aib; (6)..(6) Xaa at position 6 is alpha-methyl-Phe(2F); (13)..(13) Xaa at position 13 is alpha-methyl-Leu; (16)..(16) Xaa at position 16 is Orn; MOD_RES (17)..(17) Lys at position 17 is chemically modified by conjugation of the epsilon-amino group of the Lys side chain with (2-[2-(2-amino-ethoxy)-ethoxy]-acetyl)2-(gamma-Glu)-CO-(CH2)16- CO2H; (20)..(20) Xaa at positi) [Peptide 244]” was tested. Which “[hGIPR/hGLP1R] EC50 Ratio” value did it give?
Answer: The value was 6.41.

Question: With “Y-Aib-EGT-αMeF(2F)-TSDYSI-αMeL-LDEK((2-[2-(2-Amino-ethoxy)-ethoxy]-acetyl)2-(γGlu)-CO—(CH2)18—CO2H)AQ-Aib-EFI-Aib-YLIEGGPSSGAPPPS-NH2 (YXEGTXTSDYSIXLDEKAQXEFIXYLIEGGPSSGAPPPS; Aib, αMeF(2F), αMeL; acylated lysine C20 diacid; amide; (2)..(2) Xaa at position 2 is Aib; (6)..(6) Xaa at position 6 is alpha-methyl-Phe(2F); (13)..(13) Xaa at position 13 is alpha-methyl-Leu; MOD_RES (17)..(17) Lys at position 17 is chemically modified by conjugation of the epsilon-amino group of the Lys side chain with (2-[2-(2-amino-ethoxy)-ethoxy]-acetyl)2-(gamma-Glu)-CO-(CH2)18- CO2H; (20)..(20) Xaa at position 20 is Aib; (24)..(24) Xaa at positi) [Peptide 152]” as the substance, how does the “[hGIPR/hGLP1R] EC50 Ratio” value read?
Answer: Its value is 5.31.

Question: “Y-Aib-Aad-GTFTSDYSILLDKK((2-[2-(2-Amino-ethoxy)-ethoxy]-acetyl)2-(γGlu)-CO—(CH2)18—CO2H)AQ-Aib-AFIEYLIEGGPSSGAPPPS-NH2 (YXXGTFTSDYSILLDKKAQXAFIEYLIEGGPSSGAPPPS; Aib, Aad, lipidated Lys, C-terminal amide; (2)..(2) Xaa at position 2 is Aib; (3)..(3) Xaa at position 3 is Aad; MOD_RES (17)..(17) Lys at position 17 is chemically modified by conjugation of the epsilon-amino group of the Lys side chain with (2-[2-(2-amino-ethoxy)-ethoxy]-acetyl)2-(gamma-Glu)-CO-(CH2)18- CO2H; (20)..(20) Xaa at position 20 is Aib; MOD_RES (39)..(39) Ser at position 39 is amidated) [Peptide 89]” was tested. Which “[hGIPR/hGLP1R] EC50 Ratio” value did it give?
Answer: Its value is 8.97.

Question: “Y-Aib-EGTFTSDYSIK((2-[2-(2-Amino-ethoxy)-ethoxy]-acetyl)2-(γGlu)-CO—(CH2)18—CO2H)LDKIAQ-Aib-AFIEYLIEGGPSSGAPPPS-NH2 (Y[Aib]EGTFTSDYSIK([AEEA-AEEA-γGlu-C20 diacid])LDKIAQ[Aib]AFIEYLIEGGPSSGAPPPS-NH2; N-terminus assumed; SMILES CC[C@H](C)[C@H](NC(=O)[C@H](CCCCN)NC(=O)[C@H](CC(=O)O)NC(=O)[C@H](CC(C)C)NC(=O)[C@H](CCCCNC(=O)COCCOCCNC(=O)COCCOCCNC(=O)CC[C@H](NC(=O)CCCCCCCCCCCCCCCCCCC(=O)O)C(=O)O)NC(=O)[C@@H](NC(=O)[C@H](CO)NC(=O)[C@H](Cc1ccc(O)cc1)NC(=O)[C@H](CC(=O)O)NC(=O)[C@H](CO)NC(=O)[C@@H](NC(=O)[C@H](Cc1ccccc1)NC(=O)[C@@H](NC(=O)CNC(=O)[C@H](CCC(=O)O)NC(=O)C(C)(C)NC(=O)[C@@H](N)Cc1ccc(O)cc1)[C@@H](C)O)[C@@H](C)O)[C@@H](C)CC)C(=O)N[C@@H](C)C(=O)N[C@@H](CCC(N)=O)C(=O)NC(C)(C)C(=O)N[C@@H](C)C(=O)N[C@@H](Cc1ccccc1)C(=O)N[C@H](C(=O)N[C@@H](CCC(=O)O)C(=O)N[C@@H](Cc1ccc(O)cc1)C(=O)N[C@@H](CC(C)C)C(=O)N[C@H](C(=O)N[C@@H](CCC(=O)O)C(=O)NCC(=O)NCC(=O)N1CCC[C@H]1C(=O)N[C@@H](CO)C(=O)N[C@@H](CO)C(=O)NCC(=O)N[C@@H](C)C(=O)N1CCC[C@H]1C(=O)N1CCC[C@H]1C(=O)N1CCC[C@H]1C(=O)N[C@@H](CO)C(N)=O)[C@@H](C)CC)[C@@H](C)CC) [Peptide 26]” was tested. Which “[hGIPR/hGLP1R] EC50 Ratio” value did it give?
Answer: The value was 2.46.

Question: With “Y-Aib-EGT-αMeF(2F)-TSD-4Pal-SI-αMeL-LD-Orn-K((2-[2-(2-Amino-ethoxy)-ethoxy]-acetyl)2-(εK)-CO—(CH2)18—CO2H)AQ-Aib-AFI-(D-Glu)-αMeY-LIEGGPSSGAPPPS-NH2 (YXEGTXTSDXSIXLDXKAQXAFIXXLIEGGPSSGAPPPS; Aib, 4Pal, Orn, αMe residues, lipidated Lys, D-Glu, amide; (2)..(2) Xaa at position 2 is Aib; (6)..(6) Xaa at position 6 is alpha-methyl-Phe(2F); (10)..(10) Xaa at position 10 is 4Pal; (13)..(13) Xaa at position 13 is alpha-methyl-Leu; (16)..(16) Xaa at position 16 is Orn; MOD_RES (17)..(17) Lys at position 17 is chemically modified by conjugation of the epsilon-amino group of the Lys side chain with (2-[2-(2-amino-ethoxy)-ethoxy]-acetyl)2-(epsilon-Lys)-C) [Peptide 251]” as the substance, how does the “[hGIPR/hGLP1R] EC50 Ratio” value read?
Answer: The value was 3.74.
